The target of test [1] is T1, ScPex1^WT (Pex1-FLAG), S. cerevisiae (S. cerevisiae, UniProt P24004 1-1043).
T1 sequence: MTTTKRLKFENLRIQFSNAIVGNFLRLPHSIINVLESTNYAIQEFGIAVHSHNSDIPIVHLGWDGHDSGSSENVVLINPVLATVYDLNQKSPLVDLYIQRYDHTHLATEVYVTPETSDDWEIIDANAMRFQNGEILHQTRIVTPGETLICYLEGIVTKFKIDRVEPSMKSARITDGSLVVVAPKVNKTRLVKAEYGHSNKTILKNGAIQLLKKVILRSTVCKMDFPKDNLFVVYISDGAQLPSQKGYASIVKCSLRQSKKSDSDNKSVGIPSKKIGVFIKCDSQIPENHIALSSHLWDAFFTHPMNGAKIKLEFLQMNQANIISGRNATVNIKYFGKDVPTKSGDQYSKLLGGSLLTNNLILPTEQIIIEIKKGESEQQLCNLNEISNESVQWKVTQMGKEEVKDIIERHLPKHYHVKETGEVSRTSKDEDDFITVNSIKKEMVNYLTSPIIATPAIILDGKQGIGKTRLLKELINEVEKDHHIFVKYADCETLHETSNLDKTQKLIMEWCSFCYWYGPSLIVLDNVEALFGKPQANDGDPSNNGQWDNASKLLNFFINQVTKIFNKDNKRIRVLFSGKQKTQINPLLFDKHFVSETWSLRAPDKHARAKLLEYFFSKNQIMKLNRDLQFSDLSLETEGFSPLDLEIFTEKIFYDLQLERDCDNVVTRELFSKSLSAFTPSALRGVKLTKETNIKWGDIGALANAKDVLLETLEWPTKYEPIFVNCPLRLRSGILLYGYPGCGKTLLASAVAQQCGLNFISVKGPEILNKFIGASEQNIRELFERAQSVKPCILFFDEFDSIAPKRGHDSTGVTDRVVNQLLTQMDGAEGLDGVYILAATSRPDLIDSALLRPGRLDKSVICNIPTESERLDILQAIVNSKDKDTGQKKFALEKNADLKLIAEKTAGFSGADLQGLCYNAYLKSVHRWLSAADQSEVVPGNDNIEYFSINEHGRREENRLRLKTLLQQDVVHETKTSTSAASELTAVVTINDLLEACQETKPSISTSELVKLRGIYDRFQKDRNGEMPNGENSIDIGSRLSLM
The test is described as follows: SEC. On the technique in general: SEC sorts molecules by how far they enter the pores of the column.

In test [2] the target is T2, ScPex1^G700D (Pex1-FLAG G700D), S. cerevisiae (S. cerevisiae, UniProt P24004 1-1043, G700D).
T2 sequence: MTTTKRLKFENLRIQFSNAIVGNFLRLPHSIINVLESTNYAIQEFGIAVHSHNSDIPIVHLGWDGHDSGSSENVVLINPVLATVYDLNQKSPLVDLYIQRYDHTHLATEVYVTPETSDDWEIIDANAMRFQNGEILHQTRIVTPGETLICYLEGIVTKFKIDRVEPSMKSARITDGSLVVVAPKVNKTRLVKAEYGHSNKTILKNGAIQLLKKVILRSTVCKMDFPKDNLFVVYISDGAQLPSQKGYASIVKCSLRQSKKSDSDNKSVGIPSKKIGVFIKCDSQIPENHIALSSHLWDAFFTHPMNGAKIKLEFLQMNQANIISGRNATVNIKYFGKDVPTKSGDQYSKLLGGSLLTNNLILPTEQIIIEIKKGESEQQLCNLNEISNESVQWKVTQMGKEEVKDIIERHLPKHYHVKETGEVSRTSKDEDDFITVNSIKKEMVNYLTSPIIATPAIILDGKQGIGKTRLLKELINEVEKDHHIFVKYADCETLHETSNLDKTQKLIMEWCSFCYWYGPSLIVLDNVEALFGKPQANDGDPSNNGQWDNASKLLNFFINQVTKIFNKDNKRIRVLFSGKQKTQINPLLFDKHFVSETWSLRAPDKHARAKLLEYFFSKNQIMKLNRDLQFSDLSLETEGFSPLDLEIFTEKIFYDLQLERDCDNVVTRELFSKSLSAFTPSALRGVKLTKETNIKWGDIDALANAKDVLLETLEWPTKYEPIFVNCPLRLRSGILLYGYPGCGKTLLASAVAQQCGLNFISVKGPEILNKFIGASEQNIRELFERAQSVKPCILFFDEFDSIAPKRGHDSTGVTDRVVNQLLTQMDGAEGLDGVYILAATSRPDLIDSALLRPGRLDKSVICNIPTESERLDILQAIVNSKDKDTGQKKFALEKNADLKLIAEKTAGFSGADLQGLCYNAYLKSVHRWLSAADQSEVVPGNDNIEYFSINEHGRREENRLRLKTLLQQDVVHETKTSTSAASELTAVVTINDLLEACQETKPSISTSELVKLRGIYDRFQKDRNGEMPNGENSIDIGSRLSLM
The test is described as follows: SEC.

B1: ScPex6 (His-Pex6), S. cerevisiae (natural protein)
chain: MKASLTFSLSGIYAPCSISRDIYLEYGDKKAECLYGTIRLPQYGPGCTPGKIVHCVLDDSLPFCSIVVPSKLFGFMPTQPTMDFCYFEPILDNVVPVLDSVTFLINEQLYSKLMDLPQEMQQIQFLHYKYNINSMETVVHSRDILTSGLCQILNCSPFPQGLVDFTETQLILVNDTEQKLSALKYANEDEEYALPKIGTNSALSIDLESLPCTISRDLLRPAPHINDDNSIYAFTDAETLLRLDVTSGSFITVSNMGCVRLVKLFVLLLPNGFKKRTIYAPPKIIASFPDCSVVTISKSNIGHTDIPIANQVFISRVGGWLQSQKCFQNIILTTLKKFFSESKRILCQNDLIPIAFDSSMADLNIAEENDESDDEDELGQYYKNDSLVWFFVTSAELDCFSKDNSHFIIDPNRTKLITTNITNRRPLPLSRSNLQRYYGFAETFYYDLHIFPYVRQLVNILETSFNCSQRGITLNASVLLHSTTNNVGKATMVRFASKYLGIHLLEIDCLSLTSNSRQLDSTSKIIGYIRAKCENVLPYASPAVIFLAHLDSILLDVNANQDPEAIKLQKSINFEMSKLLDDFTFKFPGTTFVGSVNNIDNVPSSFRSHMRFEILVPVPSEAQRLRIFQWYLSSHELNRDVQQKVPVSYMDNISFSSLSSYSAGLTPLDIKSIVETARMTATARFYQESKKCGWLPQSILITQEDLSKATSKARNEFSVSIGAPQIPNVTWDDIGGIDFVKGEILDTIDMPLKHPELFTSGMKKRSGILFYGPPGTGKTLMAKAIATNFSLNFFSVKGPELLNMYIGESEANVRRVFQKAREAKPCVIFFDEIDSVAPKRGNQGDSGGVMDRIVSQLLAELDGMSTDADGVFVIGATNRPDLLDEALLRPGRFDKLLYLGIPDTDTKQLNILEALTRKFVLDNDVKLIELAKLCPFNYTGADFYALCSDAMLNAMSRIARMVEKKVSQHNELTGENISTRRWFDKIATKEDTKVVVKMEDFLKAQEQLTPSVSRAELNHYEAVRANFEGA
In the case of B1, the binding result in test [1] and in test [2] was “binds” each time.

The record behind these values is paper PMC11661142 (bioRxiv, 2024).
